From article PMC9482650, “Quantitative fragmentomics allow affinity mapping of interactomes” (Nature Communications, 2022)

Assays:
Assay in all cases: holdup assay
Design in all cases: key: below the threshold = too weak to quantify, mostly under pKd 3.1 to 4
ARHGAP21, Q5T5U3 = molecular target: T1, ARHGAP21, Q5T5U3
T1 sequence (Q5T5U3 45-169, limits assumed, looked up): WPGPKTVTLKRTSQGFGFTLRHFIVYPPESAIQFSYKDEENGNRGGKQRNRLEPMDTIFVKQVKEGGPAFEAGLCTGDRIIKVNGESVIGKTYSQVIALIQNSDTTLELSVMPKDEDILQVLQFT

ARHGEF11, O15085 = molecular target: T2, ARHGEF11, O15085
T2 sequence (O15085 42-136, limits assumed, looked up): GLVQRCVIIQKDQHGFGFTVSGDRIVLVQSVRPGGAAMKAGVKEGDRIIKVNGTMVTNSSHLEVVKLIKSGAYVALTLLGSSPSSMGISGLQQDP

DFNB31_3, Q9P202 = molecular target: T3, DFNB31_3, Q9P202
T3 sequence (Q9P202 811-907, limits assumed, looked up): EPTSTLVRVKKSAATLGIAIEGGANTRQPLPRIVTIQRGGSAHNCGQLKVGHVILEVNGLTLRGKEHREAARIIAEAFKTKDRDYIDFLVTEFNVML

DLG4_2, P78352 = molecular target: DLG4_2, P78352
FRMPD1, Q5SYB0 = molecular target: T4, FRMPD1, Q5SYB0
T4 sequence (Q5SYB0 52-145, limits assumed, looked up): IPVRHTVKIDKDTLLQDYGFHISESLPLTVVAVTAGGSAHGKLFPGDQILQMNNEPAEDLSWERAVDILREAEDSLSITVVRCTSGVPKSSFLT

GIPC2, Q8TF65 = molecular target: GIPC2, Q8TF65
GRID2IP_2, A4D2P6 = molecular target: GRID2IP_2, A4D2P6
GRIP1_5, Q9Y3R0 = molecular target: T5, GRIP1_5, Q9Y3R0
T5 sequence (Q9Y3R0 568-668, limits assumed, looked up): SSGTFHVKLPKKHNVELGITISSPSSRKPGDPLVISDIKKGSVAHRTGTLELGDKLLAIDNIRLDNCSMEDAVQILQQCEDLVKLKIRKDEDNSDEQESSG

GRIP2_4, Q9C0E4 = molecular target: GRIP2_4, Q9C0E4
IL16_3, Q14005 = molecular target: IL16_3, Q14005
Inadl_10, Q8NI35 = molecular target: Inadl_10, Q8NI35
Inadl_8, Q8NI35 = molecular target: Inadl_8, Q8NI35
LIN7B, Q9HAP6 = molecular target: T6, LIN7B, Q9HAP6
T6 sequence (Q9HAP6 88-185, limits assumed, looked up): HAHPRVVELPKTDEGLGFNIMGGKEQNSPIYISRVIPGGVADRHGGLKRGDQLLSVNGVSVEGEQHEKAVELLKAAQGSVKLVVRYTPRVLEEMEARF

LIN7C, Q9NUP9 = molecular target: T7, LIN7C, Q9NUP9
T7 sequence (Q9NUP9 88-185, limits assumed, looked up): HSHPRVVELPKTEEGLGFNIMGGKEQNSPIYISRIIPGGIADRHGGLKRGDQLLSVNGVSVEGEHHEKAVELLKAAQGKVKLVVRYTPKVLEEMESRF

LNX1_1, Q8TBB1 = molecular target: LNX1_1, Q8TBB1
MAGI2_4, Q86UL8 = molecular target: MAGI2_4, Q86UL8
MPP2, Q14168 = molecular target: T8, MPP2, Q14168
T8 sequence (Q14168 180-250, limits assumed, looked up): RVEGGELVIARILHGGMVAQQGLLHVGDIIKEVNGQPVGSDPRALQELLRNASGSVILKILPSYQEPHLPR

NHERF3_3, Q5T2W1 = molecular target: T9, NHERF3_3, Q5T2W1
T9 sequence (Q5T2W1 238-333, limits assumed, looked up): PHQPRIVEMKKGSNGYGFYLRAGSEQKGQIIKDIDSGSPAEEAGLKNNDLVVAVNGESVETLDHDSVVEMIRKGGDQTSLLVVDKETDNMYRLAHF

NHERF4_2, Q86UT5 = molecular target: NHERF4_2, Q86UT5
NOS1, P29475 = molecular target: NOS1, P29475
PARD3B_1, Q8TEW8 = molecular target: T10, PARD3B_1, Q8TEW8
T10 sequence (Q8TEW8 196-299, limits assumed, looked up): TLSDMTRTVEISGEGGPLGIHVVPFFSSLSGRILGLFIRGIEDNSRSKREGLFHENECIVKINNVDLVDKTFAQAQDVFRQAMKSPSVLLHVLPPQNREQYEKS

PARD3_3, Q8TEW0 = molecular target: PARD3_3, Q8TEW0
PCLO, Q9Y6V0 = molecular target: T11, PCLO, Q9Y6V0
T11 sequence (Q9Y6V0 4491-4600, limits assumed, looked up): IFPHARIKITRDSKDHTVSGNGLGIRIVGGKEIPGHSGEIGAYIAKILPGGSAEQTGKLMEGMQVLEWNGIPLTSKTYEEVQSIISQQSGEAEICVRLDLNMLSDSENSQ

PTPN13_1, Q12923 = molecular target: T12, PTPN13_1, Q12923
T12 sequence (Q12923 1088-1188, limits assumed, looked up): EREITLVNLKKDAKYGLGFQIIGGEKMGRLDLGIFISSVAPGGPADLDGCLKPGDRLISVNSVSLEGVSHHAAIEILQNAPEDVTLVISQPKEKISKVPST

[1] = plain residues with an end cap or a label only (N-terminal biotin on a linker: ado-ado)
[2] = plain residues with an end cap or a label only (N-terminal biotin on a linker: (peg)3)

Chain of LNX1_1, Q8TBB1 (Q8TBB1 261-371): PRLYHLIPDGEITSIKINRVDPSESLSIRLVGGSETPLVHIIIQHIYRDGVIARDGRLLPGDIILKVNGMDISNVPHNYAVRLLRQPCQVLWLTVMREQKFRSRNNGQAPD
Chain of MAGI2_4, Q86UL8 (Q86UL8 772-865): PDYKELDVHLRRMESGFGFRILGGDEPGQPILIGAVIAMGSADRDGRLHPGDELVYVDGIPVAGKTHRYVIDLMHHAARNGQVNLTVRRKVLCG
Chain of PARD3_3, Q8TEW0 (Q8TEW0 582-685): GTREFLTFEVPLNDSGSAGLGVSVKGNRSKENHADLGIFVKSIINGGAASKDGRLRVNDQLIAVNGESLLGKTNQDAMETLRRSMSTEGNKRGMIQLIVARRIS
Chain of GRIP2_4, Q9C0E4 (Q9C0E4 446-548): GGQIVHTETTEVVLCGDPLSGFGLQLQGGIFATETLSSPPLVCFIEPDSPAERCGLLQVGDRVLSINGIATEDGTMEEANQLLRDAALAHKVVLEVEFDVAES
Chain of GIPC2, Q8TF65 (Q8TF65 112-203): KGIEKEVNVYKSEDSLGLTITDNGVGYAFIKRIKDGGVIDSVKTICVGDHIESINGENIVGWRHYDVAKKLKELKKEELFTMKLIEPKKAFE
Chain of NHERF4_2, Q86UT5 (Q86UT5 220-308): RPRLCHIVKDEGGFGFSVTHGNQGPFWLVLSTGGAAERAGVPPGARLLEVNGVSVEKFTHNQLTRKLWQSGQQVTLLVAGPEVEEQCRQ
Chain of GRID2IP_2, A4D2P6 (A4D2P6 272-370): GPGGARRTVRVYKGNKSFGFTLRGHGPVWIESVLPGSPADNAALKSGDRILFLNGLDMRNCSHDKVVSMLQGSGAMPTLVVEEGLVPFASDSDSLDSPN
Chain of Inadl_8, Q8NI35 (Q8NI35 1425-1530): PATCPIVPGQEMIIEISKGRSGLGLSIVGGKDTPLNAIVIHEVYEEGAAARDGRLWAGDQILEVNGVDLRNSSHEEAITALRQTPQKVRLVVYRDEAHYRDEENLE
Chain of DLG4_2, P78352 (P78352 155-259): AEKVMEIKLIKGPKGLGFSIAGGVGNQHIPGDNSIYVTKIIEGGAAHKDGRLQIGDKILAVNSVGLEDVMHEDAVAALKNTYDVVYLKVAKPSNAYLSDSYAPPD
Chain of NOS1, P29475 (P29475 9-101): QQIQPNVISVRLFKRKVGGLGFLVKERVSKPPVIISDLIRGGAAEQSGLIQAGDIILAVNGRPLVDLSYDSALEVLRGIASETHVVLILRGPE
Chain of IL16_3, Q14005 (Q14005 1107-1207): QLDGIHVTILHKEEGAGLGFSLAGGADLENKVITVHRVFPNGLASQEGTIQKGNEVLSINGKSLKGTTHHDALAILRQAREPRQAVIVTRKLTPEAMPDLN
Chain of Inadl_10, Q8NI35 (Q8NI35 1673-1763): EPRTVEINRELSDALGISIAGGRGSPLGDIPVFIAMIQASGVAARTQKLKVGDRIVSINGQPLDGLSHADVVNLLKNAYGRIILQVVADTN

GQETPLNTFC [MAP7D2, Q96T17] was tested, and the pKd (ARHGAP21, Q5T5U3; [1]) was “below the threshold”, the pKd (ARHGEF11, O15085; [1]) was “below the threshold” and the pKd (DFNB31_3, Q9P202; [1]) was “below the threshold”. The pKd (DLG4_2, P78352; [1]) was 3.48, the pKd (FRMPD1, Q5SYB0; [1]) was “below the threshold” and the pKd (GIPC2, Q8TF65; [1]) was “below the threshold”. For the same binder, the pKd (GRID2IP_2, A4D2P6; [1]) was 3.88, the pKd (GRIP1_5, Q9Y3R0; [1]) was “below the threshold” and the pKd (GRIP2_4, Q9C0E4; [1]) was “below the threshold”. For the same binder, the pKd (IL16_3, Q14005; [1]) was “below the threshold”, the pKd (Inadl_10, Q8NI35; [1]) was “below the threshold” and the pKd (Inadl_8, Q8NI35; [1]) was “below the threshold”. For the same binder, the pKd (LIN7B, Q9HAP6; [1]) was 3.81, the pKd (LIN7C, Q9NUP9; [1]) was “below the threshold” and the pKd (LNX1_1, Q8TBB1; [1]) was “below the threshold”. The pKd (MAGI2_4, Q86UL8; [1]) was “below the threshold”, the pKd (MPP2, Q14168; [1]) was “below the threshold” and the pKd (NHERF3_3, Q5T2W1; [1]) was “below the threshold”. For the same binder, the pKd (NHERF4_2, Q86UT5; [1]) was “below the threshold”, the pKd (NOS1, P29475; [1]) was “below the threshold” and the pKd (PARD3B_1, Q8TEW8; [1]) was “below the threshold”. The pKd (PARD3_3, Q8TEW0; [1]) was “below the threshold”, the pKd (PCLO, Q9Y6V0; [1]) was “below the threshold” and the pKd (PTPN13_1, Q12923; [1]) was “below the threshold”.

Binder LTAQEQPVYI [APBA1, Q02410] has a pKd (ARHGAP21, Q5T5U3; [1]) of 3.57, a pKd (ARHGEF11, O15085; [1]) of 4.21 and a pKd (DFNB31_3, Q9P202; [1]) of 3.5. The pKd (DLG4_2, P78352; [1]) was “below the threshold”, the pKd (FRMPD1, Q5SYB0; [1]) was “below the threshold” and the pKd (GIPC2, Q8TF65; [1]) was “below the threshold”. For the same binder, the pKd (GRID2IP_2, A4D2P6; [1]) was 3.81, the pKd (GRIP1_5, Q9Y3R0; [1]) was “below the threshold” and the pKd (GRIP2_4, Q9C0E4; [1]) was “below the threshold”. For the same binder, the pKd (IL16_3, Q14005; [1]) was “below the threshold”, the pKd (Inadl_10, Q8NI35; [1]) was “below the threshold” and the pKd (Inadl_8, Q8NI35; [1]) was “below the threshold”. For the same binder, the pKd (LIN7B, Q9HAP6; [1]) was 3.66, the pKd (LIN7C, Q9NUP9; [1]) was “below the threshold” and the pKd (LNX1_1, Q8TBB1; [1]) was “below the threshold”. The pKd (MAGI2_4, Q86UL8; [1]) was “below the threshold”, the pKd (MPP2, Q14168; [1]) was “below the threshold” and the pKd (NHERF3_3, Q5T2W1; [1]) was “below the threshold”. For the same binder, the pKd (NHERF4_2, Q86UT5; [1]) was “below the threshold”, the pKd (NOS1, P29475; [1]) was 4.07 and the pKd (PARD3B_1, Q8TEW8; [1]) was 5. For the same binder, the pKd (PARD3_3, Q8TEW0; [1]) was 4.82, the pKd (PCLO, Q9Y6V0; [1]) was “below the threshold” and the pKd (PTPN13_1, Q12923; [1]) was “below the threshold”.

In the case of YDEPTTTTSVPL [SARS-Cov2-3a, P0DTC3], the pKd (ARHGAP21, Q5T5U3; [2]) is reported as 3.75, the pKd (ARHGEF11, O15085; [2]) is reported as “below the threshold” and the pKd (DFNB31_3, Q9P202; [2]) is reported as “below the threshold”. The pKd (DLG4_2, P78352; [2]) was “below the threshold”, the pKd (FRMPD1, Q5SYB0; [2]) was “below the threshold” and the pKd (GIPC2, Q8TF65; [2]) was “below the threshold”. For the same binder, the pKd (GRID2IP_2, A4D2P6; [2]) was “below the threshold”, the pKd (GRIP1_5, Q9Y3R0; [2]) was “below the threshold” and the pKd (GRIP2_4, Q9C0E4; [2]) was “below the threshold”. For the same binder, the pKd (IL16_3, Q14005; [2]) was “below the threshold”, the pKd (Inadl_10, Q8NI35; [2]) was “below the threshold” and the pKd (Inadl_8, Q8NI35; [2]) was “below the threshold”. The pKd (LIN7B, Q9HAP6; [2]) was “below the threshold”, the pKd (LIN7C, Q9NUP9; [2]) was “below the threshold” and the pKd (LNX1_1, Q8TBB1; [2]) was “below the threshold”. The pKd (MAGI2_4, Q86UL8; [2]) was “below the threshold”, the pKd (MPP2, Q14168; [2]) was “below the threshold” and the pKd (NHERF3_3, Q5T2W1; [2]) was “below the threshold”. The pKd (NHERF4_2, Q86UT5; [2]) was “below the threshold”, the pKd (NOS1, P29475; [2]) was “below the threshold” and the pKd (PARD3B_1, Q8TEW8; [2]) was 4.12. The pKd (PARD3_3, Q8TEW0; [2]) was “below the threshold”, the pKd (PCLO, Q9Y6V0; [2]) was “below the threshold” and the pKd (PTPN13_1, Q12923; [2]) was “below the threshold”.
